Experimental data taken from patent US20190092852A1.
Read-outs that look alike come from different tables or passages of the source.

T1: human IL-33 (R&D Systems, #3625-IL-010/CF) (human) (UniProt O95760)
T1 sequence (looked up): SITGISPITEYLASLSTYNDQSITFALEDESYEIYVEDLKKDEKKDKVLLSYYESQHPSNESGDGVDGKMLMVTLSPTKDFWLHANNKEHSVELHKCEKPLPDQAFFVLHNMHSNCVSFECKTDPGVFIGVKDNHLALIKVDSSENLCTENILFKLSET

T2: biotinylated human IL-33 (human) (UniProt O95760)
T2 sequence (biotin-labeled with EZ-LINK NHS-PEG4-Biotin, looked up): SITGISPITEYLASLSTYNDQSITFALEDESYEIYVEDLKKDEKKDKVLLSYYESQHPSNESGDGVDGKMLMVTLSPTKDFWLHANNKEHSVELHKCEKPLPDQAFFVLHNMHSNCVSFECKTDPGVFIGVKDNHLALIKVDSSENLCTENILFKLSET


How the values were obtained:
[1] = biological target: human ST2L on HEK-BLUE IL-33/IL-1beta cells (human) (UniProt Q01638)
human ST2L on HEK-BLUE IL-33/IL-1beta cells (human), sequence (Q01638 19-556 limits assumed): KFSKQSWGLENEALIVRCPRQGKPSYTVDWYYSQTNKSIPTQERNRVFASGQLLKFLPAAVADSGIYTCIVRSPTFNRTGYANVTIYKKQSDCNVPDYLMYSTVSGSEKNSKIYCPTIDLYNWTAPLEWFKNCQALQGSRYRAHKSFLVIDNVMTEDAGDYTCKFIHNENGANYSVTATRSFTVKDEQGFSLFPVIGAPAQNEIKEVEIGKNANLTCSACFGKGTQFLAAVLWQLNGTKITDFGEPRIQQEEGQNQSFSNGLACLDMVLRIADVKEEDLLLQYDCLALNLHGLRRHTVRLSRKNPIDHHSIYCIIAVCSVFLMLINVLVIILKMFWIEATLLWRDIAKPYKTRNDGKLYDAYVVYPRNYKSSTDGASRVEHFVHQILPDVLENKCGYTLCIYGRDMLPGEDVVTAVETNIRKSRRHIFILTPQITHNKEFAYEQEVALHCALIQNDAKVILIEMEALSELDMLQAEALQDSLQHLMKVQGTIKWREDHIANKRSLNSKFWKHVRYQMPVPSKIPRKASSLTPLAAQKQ

[2] = biological target: human ST2L on HEK-BLUE IL-33/IL-1beta cells (human) (UniProt Q01638); remark: listed apart in the source
[3] = biological target: T1, human IL-33 (R&D Systems, #3625-IL-010/CF) (human)
[4] = biological target: T1, human IL-33 (R&D Systems, #3625-IL-010/CF) (human); remark: listed apart in the source
[5] = biological target: T1, human IL-33 (R&D Systems, #3625-IL-010/CF) (human); remark: listed apart in the source
[6] = biological target: T1, human IL-33 (R&D Systems, #3625-IL-010/CF) (human); remark: listed apart in the source
[7] = biological target: T1, human IL-33 (R&D Systems, #3625-IL-010/CF) (human); remark: listed apart in the source
[8] = biological target: T1, human IL-33 (R&D Systems, #3625-IL-010/CF) (human); remark: listed apart in the source
[9] = biological target: T1, human IL-33 (R&D Systems, #3625-IL-010/CF) (human); experiment: SPR Biacore T200, 25 C
[10] = biological target: T1, human IL-33 (R&D Systems, #3625-IL-010/CF) (human); experiment: SPR Biacore T200, 37 C
[11] = biological target: T2, biotinylated human IL-33 (human); experiment: competitive ELISA, biotin-huIL-33 to coated hST2-Fc
[12] = biological target: T1, human IL-33 (R&D Systems, #3625-IL-010/CF) (human); remark: listed apart in the source
[13] = biological target: T1, human IL-33 (R&D Systems, #3625-IL-010/CF) (human); remark: listed apart in the source

Row | Binder | EC50 (SEAP reporter OD 620, HEK-BLUE IL-33/IL-1beta cells) [1] | EC50 (SEAP reporter OD 620, HEK-BLUE IL-33/IL-1beta cells) [2] | IC50; SEAP reporter (OD 620), HEK-BLUE IL-33/IL-1beta cells, 10 pM hIL-33 [3] | IC50; IFN-gamma ELISA, primary human NK cells, 260 pM hIL-33 + IL-12 [4] | IC50, IL-33-induced phospho-p38 in primary human basophils, 500 pM hIL-33 [5] | IC50 (read off the curve) [6] | Ph-p38 MFI at 0.4 nM Ab (500 pM human IL-33, primary basophils) [7] | Ph-p38 MFI at 2 nM Ab (500 pM human IL-33, primary basophils) [8] | Kd [9] | koff [9] | kon [9] | t1/2 [9] | Kd [10] | koff [10] | kon [10] | t1/2 [10] | IC50 [11] | Maximum Blocking [11] | IC50 (read off the curve) [12] | IC50 (read off the curve) [13]
1 | cynomolgus monkey N-terminal 6-His-tagged and C-terminal Avi-tagged IL-33 (S112-T270) (ligand) MHHHHHHGENLYFQGSITGISPITESLASLSTYNDQSITFALEDESYEIYVEDLKKDKKKDKVLLSYYESQHPSSESGDGVDGKMLMVTLSPTKDFWLQANNKEHSVELHKCEKPLPDQAFFVLHNRSFNCVSFECKTDPGVFIGVKDNHLALIKVDYSENLGSENILFKLSETGNSGGGLNDIFEAQKIEWHE | 0.0087 nM | 0.021 nM | – | – | – | – | – | – | – | – | – | – | – | – | – | – | – | – | – | –
2 | H4H9660P (antibody, from another filing, IgG4, V domains shown) VH: EVQLVESGGGLVQPGGSLRLSCAASGITLSSYGMSWVRQAPGKGLEWVASIFGSGGGPYYADSVKGRFTMSRDNSKNTLYLQMNSLRAEDTAVYYCAKDRYSGSYYGGFDYWGRGTLVTVSS VL: DIQMTQSPSSVSASVGDRVTITCRASQGITSWLAWYQQKPGKAPTLLIYAASSLQTGVPSRFSGSGSGTDFTLTISSLQPEHFATYYCQQANSFPPTFGGGTKVEIK | – | – | 3.8e-11 M | 2.4e-10 M | 4.8e-13 M | 0.0005 nM | 105 MFI | 29 MFI | 0.67 nM | 0.00039 s⁻¹ | 581000 M⁻¹ s⁻¹ | 30 min | 0.302 nM | 0.000413 s⁻¹ | 1.37e+06 M⁻¹ s⁻¹ | 28 min | 0.092 nM | 78% | – | –
3 | H4H9676P (antibody, from another filing, IgG4, V domains shown) VH: EVQLVESGGGLVQPGGSLRLSCSASGFTFSSYAMNWVRQAPGKGLEWVTAISGSGGGTYYADSVKGRFTISRDNSKNSLFLQLNSLRAEDTAVYYCAKQTYTSSWYGGFDIWGQGTMVTVSS VL: DIQMTQSPSSVSASVGDRVTITCRASQGFSSWLAWYQQIPGKAPKLLIYAASRLQSGVPSRFRGSGSGTDFTLTISSLQPEDFATYYCQQANSFPLTFGGGTKVEIK | – | – | 8.2e-10 M | 1.2e-09 M | 9.1e-13 M | – | 132 MFI | 61 MFI | 0.56 nM | 0.001 s⁻¹ | 1.79e+06 M⁻¹ s⁻¹ | 12 min | 0.457 nM | 0.00158 s⁻¹ | 3.47e+06 M⁻¹ s⁻¹ | 7 min | 0.97 nM | 73% | 0.0009 nM | –
4 | H4H9667P (antibody, from another filing, IgG4, V domains shown) VH: EVQLVESGGGLVQPGGSLRLSCAASGFTFSTYSMHWVRQAPGKGLEYVSTINNNGDTTYYADSVKGRFTISRDNSKNTLYLQLGSLRPEDMAVYYCARQTYTSSWYGGFDSWGQGTLVTVSS VL: DIQMTQSPSSVSASVGDRVTITCRASQGITSWLAWYQQKPGKAPKLLIYAASNLQSGVPSRFSGSGSGTDFTLTITSLQPEDFATYYCQQANSLPFTFGPGTKVDIK | – | – | 1e-09 M | – | 2e-12 M | – | 111 MFI | 68 MFI | 0.525 nM | 0.000328 s⁻¹ | 626000 M⁻¹ s⁻¹ | 35 min | 0.411 nM | 0.000497 s⁻¹ | 1.21e+06 M⁻¹ s⁻¹ | 23 min | 0.41 nM | 77% | – | 0.002 nM
